Experimental data taken from patent US20260201039A1 (CENTESSA PHARMACEUTICALS UK, published 2026).

Assays:
[1] = target: human CD28 in its native form displayed on the cell surface (human, UniProt P10747 19-220); experiment: cell-based or functional assay
[2] = target: T1, mouse CD28 recombinant protein (mouse, UniProt P31041 20-150, limits assumed); experiment: ELISA on coated mouse CD28, absorbance (blank corrected)
T1 construct: Bought recombinant protein
Protocol: (§1) For ELISA binding assays, 384 well or 96 well plates were coated with 1 ug/ml and incubated overnight at 4° C., protected from light. Plates were washed twice with PBS/0.05% Tween 20 before blocking with block buffer (3% milk protein in PBS) for 1 hour at room temperature. Next, test agent or controls were loaded and incubated for 1 hour at room temperature. Plates were then washed three times with PBS/0.05% Tween 20. Finally, HRP conjugated secondary antibody, diluted 1/5,000 in block buffer, was added and incubated for 1 hour at room temperature. Plates were again washed three times with PBS/0.05% Tween before addition of TMB substrate and incubation for 6 minutes at room temperature. Subsequently, the reaction was stopped with stop solution. Absorbance was read at 450 nm and 570 nm. Absorbance at 570 nm was subtracted from absorbance at 450 nm for each plate.

[3] = target: T1, mouse CD28 recombinant protein; experiment: SPR (Biacore 8K), CD28 captured on an anti-His surface, Fab as analyte
Protocol: (§2) In order to assess the binding of test Fabs to human or mouse CD28 (Acro Biosystems, Newark, USA), multi-cycle kinetic analysis was performed at 25° C. on a Biacore® 8K (serial no. 2724204) HBS-P+ (Cytiva, Marlborough, USA) supplemented with 0.1% BSA (Sigma, Dorset, UK) was used as running buffer as well as for ligand and analyte dilutions. CD28 proteins were diluted to 1.0 μg/mL in running buffer and at the start of each cycle loaded onto Fc2, of a series S CM5 chip (Cytiva, Marlborough, USA) previously coupled with an anti-His capture antibody (Cytiva, Marlborough, USA) using standard amine chemistry. Ligand was captured at a flow rate of 10 μl/min to give an immobilization level (RL) of ~60 RU. The surface was then allowed to stabilize. Multi-cycle kinetic data was obtained antigens as the analyte injected at a flow rate of 30 μl/min to try and minimize any potential mass transfer effects. A 9 point 2-fold dilution of purified Fab titrated from 0.39 nM to 100 nM was prepared in running buffer for Fab proteins. For each concentration, the association phases were monitored for 240 seconds, and the dissociation phase was measured for 900 seconds. […] Binding was analysed using 1:1 binding analysis due to the high affinity interaction between the antibody and antigen. The data was analysed using a procedure referred to as double referencing. […]

[4] = target: T2, human/cyno recombinant CD28 protein (human (printed as human/cyno), UniProt P10747 19-152); experiment: SPR (Biacore 8K), CD28 captured on an anti-His surface, Fab as analyte, multi-cycle kinetics, 1:1 fit
T2 construct: Bought recombinant protein; also called human recombinant CD28; human/cyno CD28
Protocol: In order to assess the binding of test Fabs to human or mouse CD28 (Acro Biosystems, Newark, USA), multi-cycle kinetic analysis was performed at 25° C. on a Biacore® 8K (serial no. 2724204) HBS-P+ (Cytiva, Marlborough, USA) supplemented with 0.1% BSA (Sigma, Dorset, UK) was used as running buffer as well as for ligand and analyte dilutions. CD28 proteins were diluted to 1.0 μg/mL in running buffer and at the start of each cycle loaded onto Fc2, of a series S CM5 chip (Cytiva, Marlborough, USA) previously coupled with an anti-His capture antibody (Cytiva, Marlborough, USA) using standard amine chemistry. Ligand was captured at a flow rate of 10 μl/min to give an immobilization level (RL) of ~60 RU. The surface was then allowed to stabilize. Multi-cycle kinetic data was obtained antigens as the analyte injected at a flow rate of 30 μl/min to try and minimize any potential mass transfer effects. A 9 point 2-fold dilution of purified Fab titrated from 0.39 nM to 100 nM was prepared in running buffer for Fab proteins. For each concentration, the association phases were monitored for 240 seconds, and the dissociation phase was measured for 900 seconds. Regeneration of the sensor chip surface was conducted between cycles using 10 mM glycine pH 2.1. Multiple repeats of a blank and of antigen were programmed into the kinetic run, in order to check the stability of both the surface and analyte over the kinetic cycles. The signal from the reference Fc1 (no ligand captured) was subtracted from that of Fc2 to correct for bulk effect and differences in non-specific binding to a reference surface. The signal from each blank run (ligand captured but no antigen) was subtracted to correct for differences in surface stability. Binding was analysed using 1:1 binding analysis due to the high affinity interaction between the antibody and antigen. The data was analysed using a procedure referred to as double referencing. This refers to the process of first subtracting the reference channel response (Fc1) and then subtracting the zero concentration sensorgram to compensate for bulk effects, baseline drift and small differences between the reference and the active channel.

[5] = target: T2, human/cyno recombinant CD28 protein; experiment: SPR (Biacore 8K, 25 C), CD28 captured by anti-His antibody, Fab as analyte, 1:1 fit; Fab_001 (CD28 TGN derived sequence)
Protocol: as §2

[6] = target: T2, human/cyno recombinant CD28 protein; experiment: SPR (Biacore 8K, 25 C), CD28 captured by anti-His antibody, Fab as analyte, 1:1 fit; Fab_002
Protocol: as §2

[7] = target: T2, human/cyno recombinant CD28 protein; experiment: ELISA on coated huCD28, corrected absorbance (A450-570 nm)
Protocol: as §1
To assess the ability of undigested fully intact and MMP12 incubated proteins to interact with CD28, binding ELISAs to recombinant human CD28 domain were carried out. In parallel, purified IgG_001 and IgG_002 proteins were used as positive controls while isotype binding was used as negative control.

| Binder | binding result [2] | binding result [3] | Kd [4] [nM] | koff [4] [s⁻¹] | kon [4] [M⁻¹ s⁻¹] | also measured |
| --- | --- | --- | --- | --- | --- | --- |
| IgG_001 (antibody, V domains shown, also called TGN derived CD28 V domain IgG_001 on IgG1-Fc isotype) VH: QVQLVQSGAEVKKPGASVKVSCKASGYTFTSYYIHWVRQAPGQGLEWIGSIYPGNVNTNYNEKEKDRATLTVDTSISTAYMELSRLRSDDTAVYFCTRSHYGLDWNFDVWGQGTTVTVSS VL: not shown | no binding (tested: about 300 nM) |  |  |  |  | mean IL2 secretion, PBMC of 20 donors on plate-coated protein, 72 h [1]: ~2000 pg/mL |
| Anti-CD28 Fab-001 (Fab, V domains shown, Monovalent Fab) VH: QVQLVQSGAEVKKPGASVKVSCKASGYTFTSYYIHWVRQAPGQGLEWIGSIYPGNVNTNYNEKEKDRATLTVDTSISTAYMELSRLRSDDTAVYFCTRSHYGLDWNFDVWGQGTTVTVSS VL: not shown |  | no binding | 0.593 | 0.00027 | 455000 | Kd [5]: 0.59 nM |
| LPD28-3, intact (bispecific antibody, human IgG1, kappa, Asymmetric one arm construct: anti-PD-L1 Fab above anti-CD28-2 Fab; also called undigested LPD28-3; LPD28-3 (0 min)) heavy: not shown light: not shown SCPPCPAPEAAGAPSVFLFPPKPKDTLMISRTPEVTCVVVDVSHEDPEVKFNWYVDGVEVHNAKTKPREEQYNSTYRVVSVLTVLHQDWLNGKEYKCKVSNKALPAPIEKTISKAKGQPREPQVCTLPPSRDELTKNQVSLSCAVKGFYPSDIAVEWESNGQPENNYKTTPPVLDSDGSFFLVSKLTVDKSRWQQGNVFSCSVMHEALHNHYTQKSLSLSPGK |  |  |  |  |  | binding result [7]: binds |

More lines, main results first:

| binding result [2] | binding result [3] | Kd [4] [nM] | koff [4] [s⁻¹] | kon [4] [M⁻¹ s⁻¹] | Binder | also measured |
| --- | --- | --- | --- | --- | --- | --- |
|  | no binding | 0.532 | 0.000241 | 454000 | Fab_002 (Fab, V domains shown, also called Anti-CD28-2 Fab) VH: QVQLQQSGAELKKPGASVKVSCKASGYTFTEYIIHWIKLRSGQGLEWIGWFYPGSNDIQYNAQFKGKATLTADKSSSTVYMELTGLTPEDSAVYFCARRDDFSGYDALPYWGQGTLVTVSA VL: DIQMTQSPSSLSASVGDRVTITCKTNENIYSNLAWYQQKDGKSPQLLIYAATHLVEGVPSRFSGSGSGTQYSLTISSLQPEDFGNYYCQHFWGTPCTFGGGTKLEIKR | Kd [6]: 0.53 nM |
| no binding (tested: about 300 nM) |  |  |  |  | IgG_002 (antibody, V domains shown, also called non superagonist CD28 IgG) VH: QVQLQQSGAELKKPGASVKVSCKASGYTFTEYIIHWIKLRSGQGLEWIGWFYPGSNDIQYNAQFKGKATLTADKSSSTVYMELTGLTPEDSAVYFCARRDDFSGYDALPYWGQGTLVTVSA VL: DIQMTQSPSSLSASVGDRVTITCKTNENIYSNLAWYQQKDGKSPQLLIYAATHLVEGVPSRFSGSGSGTQYSLTISSLQPEDFGNYYCQHFWGTPCTFGGGTKLEIKR |  |
